Measurements from US20150044245A1, “PARTIAL MHC CONSTRUCTS AND METHODS OF USE” (Oregon Health & Science University, priority 2012, published 2015).
Where two headings read alike, the source gives them in different places.

How the values were obtained:
[1] = system: mMOG-35-55-induced EAE in DR*1501-Tg mice
[2] = target: MHC class II from DR*1501-Tg mice; assay: Direct binding of FITC-labeled constructs to MHC class II immuno-adsorbed from CD74-depleted lysate; design: species or system mouse; details: FITC-labeled ligand, read-out: MHC Class II One binding site KD
Experimental: In order to test ligand binding to the separate components of the RTL receptor, DR*1501-Tg splenocytes were biotinylated and lysed as described above and CD74 was immunoprecipitated overnight at 4° C. with the anti-CD74 monoclonal antibody ln-1. Immune complexes (Protein L-beads/ln-1/CD74) were analyzed for their ability to bind FITC-labeled pDR2RTL constructs by performing a direct binding saturation with increasing concentration of the different constructs (0 to 10 nM). Binding was carried out for 4 hours at 4° C. with gentle shaking and in the presence of 1% CHAPS in TEN buffer. Afterwards the complexes were washed thoroughly with 1% CHAPS/TEN and once with only TEN buffer to remove excess detergent. Bound proteins were eluted in 2% SDS electrophoresis sample buffer at 90° C. for 6 to 8 minutes and beads were sedimented. After the supernatant was collected and proteins separated using 10-20% SDS-PAGE, the gel was scanned for FITC chromophore and quantified by densitometry. Ligand concentration was plotted versus the fluorescence intensity of the bands and the curve generated was fit to one or two binding sites with the GraphPad Prism® Software. […] Direct binding to saturating concentrations of the pDR2 constructs was carried out and analyzed as described above.

[3] = target: T1, CD74 (Mus musculus, UniProt P04441); assay: CD74 cell-surface expression on CD11b+ monocytes in vitro (FACS); type: cell-based; details: naïve CD11b+ monocytes, 1 hour at 37° C.
T1 construct: endogenous in cells; host or cells: CD11b+ monocytes of DR2 (DR*1501)-Tg mice: naive blood cells in vitro; blood, spleen and spinal cord cells of treated EAE mice
T1 sequence (P04441 1-279): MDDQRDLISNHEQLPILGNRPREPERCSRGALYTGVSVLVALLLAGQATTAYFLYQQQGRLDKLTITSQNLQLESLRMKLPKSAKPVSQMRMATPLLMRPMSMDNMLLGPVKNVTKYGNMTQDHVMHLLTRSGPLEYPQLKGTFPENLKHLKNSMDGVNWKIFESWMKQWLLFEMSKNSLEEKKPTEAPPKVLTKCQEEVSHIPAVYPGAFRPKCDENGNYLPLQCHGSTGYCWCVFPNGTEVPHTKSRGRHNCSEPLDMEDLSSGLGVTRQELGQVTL
Experimental: Analysis of naive DR2 PBMC subtypes was preformed using four-color (fluorescein isothiocyanate (FITC), phycoerythrin (PE), propidium iodide, allophycocyanin) flow cytometry. Blood was collected from naive DR2 mice through cardiac exsanguination into 1X PBS/EDTA. After washing blood in 1X PBS, the red blood cells were lysed with 1X RBC lysis buffer (eBioscience, Inc., San Diego, Calif.) followed by two washes in RPMI. One million cells were incubated in RPMI with 1 μg unlabeled pDR2, 1 μg pDR2FITC, or 1 μg Fab Neutralized pDR2FITC for one hour at 37° C. For samples assessing Fab neutralization of pDR2 binding, pDR2s were incubated with 1:1 molar ratio of Fab1B11 or FabD2 for two hours at room temperature prior to incubation with cells, pDR2 incubation was followed directly by a 30 minute incubation at 4° C. with CD3 PE (ebioscience, Inc., San Diego, Calif.), CD74 PE (Santa Cruz Biotechnology, Inc., Santa Cruz, Calif.), or CD11b PE, CD11b allophycocyanin, CD11c allophycocyanin, CD19 allophycocyanin (BD Pharmingen, San Diego, Calif.). Antibodies and pDR2 were thoroughly removed by two additional washes in 1X PBS/0.5% BSA staining media. Cells were resuspended in staining media containing propidium iodide and immediately analyzed with a FACSCALIBUR™ using FCS EXPRESS™ software (BD Biosciences, San Jose, Calif.). […]

[4] = target: T2, CD74 (Mus musculus, UniProt P04441); assay: Competition with labeled RTL1000 for binding to immunoprecipitated CD74; details: unlabeled competitor
T2 construct: DR*1501-Tg splenocytes were biotinylated and lysed as described above and CD74 was immunoprecipitated overnight; endogenous in cells; host or cells: splenocytes of DR*1501-Tg mice (surface-biotinylated, lysed in 1% CHAPS/TEN; CD74 captured on Protein L / ln-1 beads)
T2 sequence (P04441 1-215 isoform P04441-2): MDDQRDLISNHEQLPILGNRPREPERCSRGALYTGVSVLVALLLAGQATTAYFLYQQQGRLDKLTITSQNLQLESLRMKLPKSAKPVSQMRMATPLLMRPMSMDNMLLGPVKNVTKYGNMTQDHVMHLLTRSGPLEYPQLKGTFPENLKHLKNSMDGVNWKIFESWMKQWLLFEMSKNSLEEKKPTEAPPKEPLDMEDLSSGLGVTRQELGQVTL
Experimental: (§1) For direct binding of RTL constructs, Protein-L/ln-1/CD74 complexes were prepared as described above. Labeled ligand constructs were incubated for 4 hours at 4° C. in 1% CHAPS in TEN buffer and free ligand was removed by extensive washing. Elution of bound proteins was carried out as described above and the eluate was analyzed by SDS-P AGE. […] In all assays involving fluorescent labeling, the chromophore was detected by scanning at the appropriate wavelength using a Molecular Imager® FX scanner (Bio-Rad) and the fluorescence intensity was determined using Quantity One® software (Bio-Rad) associated with the imager.

[5] = target: T2, CD74; assay: Coimmunoprecipitation of FITC-labeled constructs with CD74; type: binding; details: FITC-labeled construct, bead-immunopurified CD74
Experimental: For immunoprecipitation experiments, antibody TU39 (BD Pharmingen) was pre-bound to bead-conjugated Protein A for 2 hours in ice-cold TEN-TX100 or TEN-CHAPS followed by RTL binding to these complexes. Lysate (previously pre-cleared with bead-conjugated Protein A) was added to the tube and binding was carried out overnight at 4° C. with soft orbital shaking Samples were extensively washed with TEN buffer and the appropriate detergent. For CD74 immunoprecipitation, ln-1 mAb was adsorbed to bead-conjugated Protein L as described above and pre-cleared lysate was added to this mixture. When necessary, bound material was eluted by boiling the immune complexes in electrophoresis sample buffer and analyzed by SDS-PAGE and Western blot.
as §1

B1: DR-α1: construct comprising DR-α1 domain alone (with no DR2-β1 domain or peptide) (protein)
chain: IKEEHVIIQAEFYLNPDQSGEFMFDFDGDEIFHVDMAKKETVWRLEEFGRFASFEAQGALANIAVDKANLEIMTKRSNYTPITN
[1]; 100 μg daily X2 (Table 12)
  CDI: 32.9 ± 7.8
  Incidence: 4/4
  Mortality: 0
  Onset: 10.0 ± 1.2
  Peak: 2.6 ± 0.5
[1]; 300 μg daily X2 (Table 12)
  CDI: 24.1 ± 10.3
  Incidence: 11/11
  Mortality: 0
  Onset: 9.5 ± 0.8
  Peak: 2.3 ± 0.6
[1]; 500 μg daily X2 (Table 12)
  CDI: 20.7 ± 12.7
  Incidence: 10/10
  Mortality: 0
  Onset: 9.6 ± 0.7
  Peak: 2.5 ± 0.7
[1]; 1000 μg daily X2 (Table 12)
  CDI: 21.1 ± 9.9
  Incidence: 6/6
  Mortality: 0
  Onset: 10.7 ± 1.0
  Peak: 2.3 ± 0.4
[1]; mMOG-35-55-induced EAE
  effect on EAE (in words): lower than those treated with vehicle alone
[2]
  Kd: > 10 nM
[3]
  CD74 expression versus construct binding/concentration (in words): inverse relationship between pMHC concentration and CD74 expression
[4]
  competition with pDR2/hMOG-35-55 for binding to CD74 (in words): competed with pDR2/hMOG-35-55 for binding to CD74
[5]
  coimmunoprecipitation with CD74 (in words): coimmunoprecipitated with CD74
